Patent US20250205190A1, “NUTRITIONAL COMPOSITION” (N.V. NUTRICIA, priority 2022, published 2025)

Tests used:
Assay in all cases: i-screen in vitro colon microbiota model, fermentation of infant faecal pool, 16S rRNA sequencing
Type in all cases: cell-based
Details in all cases: t = 24 hours anaerobic fermentation, SIEM medium, 37° C., triplicate, ingredient conc. per Table 1
Bifidobacteriaceae = test system: Bifidobacteriaceae
Protocol: (§1) In an in vitro colon microbiota model, i-screen™ (TNO, Zeist, Netherlands), the effect of infant milk formula ingredients on the anaerobic fermentation of infant microbiota was assessed.
(§2) The in vitro microbiota model mimics colonic conditions. Before a consumed ingredient reaches the colon in a human, already a part of the digestion/absorption has taken place in the gastrointestinal tract preceding the colon. For each ingredient the degree of digestion/absorption before reaching the colon varies and this was taken into account when selecting the ingredient concentrations to be tested (see Table 1).
(§3) The infant faecal pool consisted of samples obtained from faeces of 5 European infants aged 3.5-8.5 months. The samples were thawed, homogenized, aliquoted and stored at −80° C. till the start of the i-screen assay run.
(§4) • Before starting the fermentation with the test ingredients. The infant fecal pool was incubated in an anaerobic flask for 4 hours in SIEM (simulated ileal environment media) medium (pH 5.8) under anaerobic conditions (37° C.; 300 rpm). Subsequently this SIEM medium with feces was homogenized and distributed into a 96 w-plate. • The test ingredients were pre-diluted in a higher concentration in fresh SIEM medium and added to the existing medium in the 96 wells plate. For milk fat the addition method was slightly adapted, milk fat was added to fresh SIEM medium at 45° C., subsequently thoroughly homogenized, followed by addition to the wells in the 96 w plate. • The i-screen experiment included an untreated control (microbiota only), an positive control (Inulin, Raftiline ST), blanks (SIEM medium only) and technical controls (internal controls for DNA isolation and sequencing). • Each test condition was conducted in triplicate. • After 24 hours of fermentation in SIEM medium under anaerobic conditions at 37° C., samples were collected for DNA analyses. […]
(§5) Changes in the microbiota composition were analyzed by using 16S rDNA amplicon sequencing. […] Amplicon quality and size were analyzed on a Fragment Analyzer (Advanced Analytical Technologies, Inc.). […]

Enterobacteriaceae = test system: Enterobacteriaceae
Protocol: as §1, §2, §3, §4, §5

Bacteroidaceae = test system: Bacteroidaceae
Protocol: as §1, §2, §3, §4, §5

B1: Lactoferrin (protein, UniProt P24627 20-708, looked up)
Lactotransferrin: APRKNVRWCTISQPEWFKCRRWQWRMKKLGAPSITCVRRAFALECIRAIAEKKADAVTLDGGMVFEAGRDPYKLRPVAAEIYGTKESPQTHYYAVAVVKKGSNFQLDQLQGRKSCHTGLGRSAGWIIPMGILRPYLSWTESLEPLQGAVAKFFSASCVPCIDRQAYPNLCQLCKGEGENQCACSSREPYFGYSGAFKCLQDGAGDVAFVKETTVFENLPEKADRDQYELLCLNNSRAPVDAFKECHLAQVPSHAVVARSVDGKEDLIWKLLSKAQEKFGKNKSRSFQLFGSPPGQRDLLFKDSALGFLRIPSKVDSALYLGSRYLTTLKNLRETAEEVKARYTRVVWCAVGPEEQKKCQQWSQQSGQNVTCATASTTDDCIVLVLKGEADALNLDGGYIYTAGKCGLVPVLAENRKSSKHSSLDCVLRPTEGYLAVAVVKKANEGLTWNSLKDKKSCHTAVDRTAGWNIPMGLIVNQTGSCAFDEFFSQSCAPGADPKSRLCALCAGDDQGLDKCVPNSKEKYYGYTGAFRCLAEDVGDVAFVKNDTVWENTNGESTADWAKNLNREDFRLLCLDGTRKPVTEAQSCHLAVAPNHAVVSRSDRAAHVKQVLLHQQALFGKNGKNCPDKFCLFKSETKNLLFNDNTECLAKLGGRPTYEEYLGTEYVTAIANLKKCSTSPLLEACAFLTR
notes: Friesland Campina, Vivinal Lactoferrin, comprises 96 wt. % lactoferrin; 2 mg/ml in well
Average relative abundance (%) [st. dev] Bifidobacteriaceae (Bifidobacteriaceae): 9.39 (1.50) % | Average relative abundance (%) [st. dev] Enterobacteriaceae (Enterobacteriaceae): 41.73 (1.64) % | Average relative abundance (%) [st. dev] Bacteroidaceae (Bacteroidaceae): 19.81 (0.48) %
